This test addresses T1, soluble serum stimulated 2 (sST2) (UniProt Q01638-2 19-328).
T1 construct: ST2 (IL1RL1), truncated soluble isoform that lacks the transmembrane and intracellular domains of ST2L; also called soluble ST2; IL1RL1; source: recombinant; expression and purification described previously [21]; receptor glycoproteins re-monomerized by Superdex 200 SEC
T1 sequence (looked up): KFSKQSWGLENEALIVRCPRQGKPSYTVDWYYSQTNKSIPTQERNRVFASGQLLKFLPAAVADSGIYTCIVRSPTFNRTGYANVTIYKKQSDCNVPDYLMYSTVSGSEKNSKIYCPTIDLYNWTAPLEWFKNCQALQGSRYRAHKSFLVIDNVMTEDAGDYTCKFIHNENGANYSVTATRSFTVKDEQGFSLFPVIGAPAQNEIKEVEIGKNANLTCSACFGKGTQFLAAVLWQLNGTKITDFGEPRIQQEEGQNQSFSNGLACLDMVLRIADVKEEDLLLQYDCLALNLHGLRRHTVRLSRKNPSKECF
Briefly: KinExA; kinetic exclusion assay in free solution; IL-33^red titrated into fixed sST2 (30 pM and 2.0 pM); 1:1 binding model fitted to two datasets; association rate also by KinExA. The conditions noted are these: both partners purified.

B1: reduced interleukin-33 (IL-33^red), residues 112–270 (ligand, human, UniProt O95760 112-270, looked up)
chain: SITGISPITEYLASLSTYNDQSITFALEDESYEIYVEDLKKDEKKDKVLLSYYESQHPSNESGDGVDGKMLMVTLSPTKDFWLHANNKEHSVELHKCEKPLPDQAFFVLHNMHSNCVSFECKTDPGVFIGVKDNHLALIKVDSSENLCTENILFKLSET
notes: Interleukin-33, human, residues 112-270, reduced form (free cysteines); also called wild-type IL-33; source: recombinant; expression and purification described previously [21]
In general, Kd refers to the equilibrium constant for the complex coming apart. A high value points to lower affinity. As a reminder, the kon is the rate constant with which the complex forms. Read a high kon as faster complex formation. Molecule B1 displayed a Kd of 0.09 pM and a kon of 1.5e+08 M⁻¹ s⁻¹.

(Values after publication doi:10.1101/2023.02.28.527262, “Tozorakimab (MEDI3506): a dual-pharmacology anti-IL-33 antibody that inhibits IL-33 signalling via ST2 and RAGE/EGFR to reduce inflammation and epithelial dysfunction” (bioRxiv, 2023).)
